# Measurements reported in the supplement of paper PMC9170038.
# System: MS2 coat protein
# Assay: apparent KD of MS2 coat protein; higher = weaker reporter binding
# Conditions: Eterna round: R107; input ligand: theophylline 20 uM
# In short: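 Designed RNA switches were made by on-chip transcription from Illumina sequencing clusters and then titrated with SNAP-549-labelled MS2 coat protein. Twofold steps ran from 0.7 or 1.5 nM to 3 µM, each lasting 0.8–1.5 h early and 10–20 min late, in 100 mM Tris-HCl pH 7.5, 80 mM KCl, 4 mM MgCl2, without or with constant ligand. Apparent KD is the per-design median of normalised cluster binding-curve fits.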
row,Sequence,apparent KD of MS2 coat protein [nM]
1,GCGACCCUGAGAUCCUACGUAACGUGAACACGAGGACCGGUACGGCCGCCACUCGAGAGAACAUGAGGAUCACCCAUGUCUGAGC [e-trypA-0],37.2
2,UCGUGUAUAUCGGAUACCAGUGAGAAGGAUACAUGAGGAUCACCCAUGUGAGUUGAUGUACACCCUUGGCAGCUGUAUAUAUCUA [.plullin],62.7
3,ACAUGAGGAUCACCCAUGUACAUGAGGGAAGGAGCGGUACAUGAGCCAGGUAGGUCGCCCAUGAGCAUCAGGCAUGUACAUCAGC [kokmmullin],97.3
4,AGAUGACACAGUGGAUAGCAAGAUGCCGAUACCAGCUAGGAAACUAGCCCUUGGCAGCGGUACAUGAGGAUCACCCAUGUAUCCU [EThA NP+V+V2 #10],15.1
5,ACCUCACUCUCUGAUACCAGCUAAUAACAUGAGGAUCACCCAUGUCAGACUUGUAUUGAUAGCCCUUGGCAGCAGAGGUAACUGC [Theo B Ex t2],11.9
6,AGACAUGAGGAUCACCCAUGUAGUACGGAUACCAGAUCCAGAUGCGUCCCUUGGCAGCUGUGGUACAGCGUUACAUCGCUCGUAG [Exclusion - Theophylline A (Freestyle 23)],29.9
7,GCCAGUCAUAGCAGGGCAAAUAUACUCGAAGGAGCGUCAUAGUAGGCAGGUAGGUCGCGAGACAUGAGGAUCACCCAUGUAGAGA [fffmullin],59.8
8,GGCCCGGACUUGGAAUGGGUGUUUCCUUCACGAGGACCGGUACGGCCGCCACUCGAAGACAUGAGGAUCACCCAUGUAGUCGACC [Soleti],100
9,CAGCCUGAUUGGUAAAUCCCUCAUCGUGAUACCAGUCGAGUGAUCGACCCUUGGCAGCACAUGAGGAUCACCCAUGUGCGCGUAA [Raisener],34.9
10,GGGCAAGAGGGAAGGAGCGUCGGCUGGGUAACAUGAGGAUCACCCAUGUAGCACAUGGUGUGGCAGGUAGGUCGCCCUCUGCCCU [SS-ArgB9],153
11,ACCAUGUAAUCAGAUACCAGACAUCUUUUAAAUCAUAUUACAUGAGGAUCACCCAUGUUGGUCCCUUGGCAGCUGAAAUAUUUCA [JR_Nu_SSTheophyB_Sub025],351
12,GCAUCCUAGUCGGCCGCCACUGCAACAUGAGGAUCACCCAUGUCUGCAUCUUCAUGAUGCAGUAGCAGGACCGGGACUAGGAUGC [(T1)-(M1)-(M2)-(T)''-(M)'-(T)'-(T2)_Design1_2/18/17],153
13,UCGUGUAUAACGGAUACCAGUGAGAAGGAUACAUGAGGAUCACCCAUGUGAGUUGAUCCACACCCUUGGCAGCUGUAUAUAUCUA [alamullin],468
14,AUACAUGAGGAUCACCCAUGUCACACAGAAGGAGCGGCUGUAGAGCCAGGUAGGUCGCUGUACUGAAAAUACUUCAUACUCAUGU [#30 Exclusion - Arginine A],43
15,AGAUUUAUUUUGACCGGGCUCAUUCCUGAAGGAGCGCAGAACAAUGCAGGUAGGUCGCAGGACAUGAGGAUCACCCAUGUCAAGC [Isaes],18.3
16,ACGAUAGGACAUGAGGAUCACCCAUGUGAUACCAGCCUGGAAACAGGCCCUUGGCAGCACAAAUACUCCAGAAACCUAUCGAAAA [MAT - Exclusion Theophlline A - Mod of Eli - D5],263
17,CAUGGGUGGUAUCACCCAUCCAUAGGUGAUACCAGCAUCGAAAGAUGCCCUUGGCAGCACCAACAUGAGGAUCACCCAUGUAAUA [(M)'-(T)'-(M)''-(T1)-(T2)-(M1)-(M2)_Design2],189
18,GGUGGCGGGACUGAUACCAGCCACCACCGAUAGACCACAUGAGGAUCACCCAUGUUGGGUGGCCCUUGGCAGCAGUCUUGCGUCG [#1 Same State - Theophylline B Attempt #16 (HarryS)],92.9
19,AGUACUCGAACGGAUACCAGCCGGACAUGAGGAUCACCCAUGUCCUACCUCUGUUCGGUUGGCCCUUGGCAGCCGUUCGUGUACA [Omei Theo B SS A v7],580

# Same assay, conditions: Eterna round: R107; input ligand: theophylline 2 mM
row,Sequence,apparent KD of MS2 coat protein [nM]
1,ACAUGAGGAUCACCCAUGUAUUCAUCAGAAGGAGCGUGGAAUAACACAGGUAGGUCGCUGAUUAUUUGUUAAAUAAAUUCGUGUA [JR_Nu_SSArginiA_Sub023],16
2,AGAGUUAGACAAAAGUCUAGCUCACCAGAAGGAGCGUCCGAAAGGACAGGUAGGUCGCUGGUGCAUGAGGAUCACCCAUGUUCCU [ArgAS 20 #OpenEnded #AlternativeMS2],313
3,AAUAUAUAUCACGAACUGUGGUGUAUGUUGCGAGGACCGGUACGGCCGCCACUCGGCCGGUGGUACAUGAGGAUCACCCAUGUUG [XTryp A #9],40.1
4,CUCAUCCACGCGGCCGCCACUAUAUUGUGGUGUGAAUGUGACGUAUUACAAGAGGAUCACCCUUGUAGGACCGGGCGUGGAUGAG [Tryp B Ex Mod1],34.2
5,CACGAAAGAUCGGCCGCCACUAACCUGUGUGUACUAGCACAUGAGGAUCACCCAUGUUCUUGCGUUAGGACCGGGAUUGAGCGUG [#04 Exclusion Tryptophan B],27.5
6,UGACAGAUAACCGCUGGUGCUCUCGAGUUGCGAGGACCGGUACGGCCGCCACUCGACAACAUGAGGAUCACCCAUGUUGCGGGUC [Lareara],156
7,AGGACGGUCGGAAGGAGCGGUACAUGAGGAUCACCCAUGUACCUCUGGGCAUCCGUAGUGUGCCAGGUAGGUCGCCGAUUGCGGG [Lareerra],16.5
8,GCUAGGUCUACGGCCGCCACUAGACGUGGGUAAGACAUGAGGAUCACCCAUGUACUACGGGCGAUUAGGACCGGGUAGACCUAGC [SSTB NP+V+V2 #16 Same Structure],646
9,GUACCGUAAACGGCCGCCACUGACAUGAGGAUCACCCAUGUGCUGGUGGUGCACAACCUCAGGUUCAGGACCGGGUUUCCGAGCU [theeternabot_exclusion_MS2_Trp_B_50],32.2
10,GGGCCCGGGCGCGAGCCCGGGCCCAUUGAUACCAGUGAAAAUAUACGCCCUUGGCAGCGAAUCCUAACAUGAGGAUCACCCAUGU [5.A],70.9
11,AUCAUCAGUUCGGCCGCCACUGUUUGGCACAGUUGUAUCGUACAUGAGGAUCACCCAUGUCACCACAGGACCGGGAACGCCGUCG [theeternabot_exclusion_MS2_Trp_B_1],18.3
12,AGUCUUAUAGGAAGGAGCGCAAUCAUAACAUGAGGAUCACCCAUGUCGAGGUGAGGGUCAUUGCAGGUAGGUCGCCUAACUAAGA [Same State - Arginine B (Freestyle 8)],344
13,CCCGUAAAGGCGGCCGCCACUGUAUGACAUGAGGAUCACCCAUGUAGGGAAAAUGCGAUGGUCGUCAGGACCGGGCCUCUGGCAU [theeternabot_exclusion_MS2_Trp_B_5],28.2
14,UGACGAGGCCUGGAUACCAGCGACAUGAGGAUCACCCAUGUAUGAGGAUCAGCCAUGUUAUGCCCUUGGCAGCCACGAAGGUCAG [WQQMULLIN],220
15,UGUAUGGACUGAAGGAGCGGGUAAUAAACCUGAGGAUCACCCAGGUAAUAGGCGAAAGCCGCCCAGGUAGGUCGCAGUCCAUACU,11.7
16,GCGACCCUGAGAUCCUACGUAACGUGAACACGAGGACCGGUACGGCCGCCACUCGAGAGAACAUGAGGAUCACCCAUGUCUGAGC [e-trypA-0],30.8
17,ACAUGAGGAUCACCCAUGUACAUGAGGGAAGGAGCGGUACAUGAGCCAGGUAGGUCGCCCAUGAGCAUCAGGCAUGUACAUCAGC [kokmmullin],105
18,GCCAGUCAUAGCAGGGCAAAUAUACUCGAAGGAGCGUCAUAGUAGGCAGGUAGGUCGCGAGACAUGAGGAUCACCCAUGUAGAGA [fffmullin],48.3
